Laboratory results: the supplement of paper PMC9116672
± gives the standard deviation of the averaged measurements or the uncertainty stated by the source.

What was measured:
[1] = duplex melting temperature (HRM, EvaGreen); higher = more stable duplex
Description: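 Listed DNA strand annealed 1:1 with its complementary strand (95 °C 5 min, 0.1 °C/s to 20 °C). Melted in 1x NNE buffer (500 mM NaCl, 10 mM Na2HPO4, 1 mM EDTA, pH 7.0) with 1x EvaGreen on a LightCycler96 (37 to 97 °C, 0.1 °C/s). Tm is the peak of -dF/dT at the stated total duplex concentration; 4 replicates are averaged. PS oligos are non-stereospecific (Rp/Sp mixtures).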

[2] = duplex formation free energy ΔG50 (Van't Hoff fit of HRM Tm); higher = less stable duplex; conditions: temperature for dG: 50 °C, NaCl: 500 mM (unadjusted)
Description: (§1)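 Duplex of the listed DNA strand with its complement, in 1x NNE buffer (500 mM NaCl, pH 7.0) with 1x EvaGreen. ΔH and ΔS come from a Van't Hoff linear fit of 1/Tm against ln(CT/4) over 1-20 uM, using HRM Tm values.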

[3] = duplex formation enthalpy ΔH (Van't Hoff fit of HRM Tm); higher = less exothermic duplex formation; conditions: temperature for dG: 50 °C, NaCl: 500 mM (unadjusted)
Description: as §1

[4] = duplex formation entropy ΔS (Van't Hoff fit of HRM Tm); higher = smaller entropy loss on duplex formation; conditions: temperature for dG: 50 °C, NaCl: 500 mM (unadjusted)
Description: as §1

[5] = duplex concentration 1 µM, backbone: PO-PO (both strands phosphodiester DNA)
[6] = duplex concentration 1 µM, backbone: PS-PS (both strands fully phosphorothioate)
[7] = duplex concentration 2.5 µM, backbone: PO-PO (both strands phosphodiester DNA)
[8] = duplex concentration 2.5 µM, backbone: PS-PO (listed strand fully phosphorothioate, complement phosphodiester)
[9] = duplex concentration 2.5 µM, backbone: PS-PS (both strands fully phosphorothioate)
[10] = duplex concentration 5 µM, backbone: PO-PO (both strands phosphodiester DNA)
[11] = duplex concentration 5 µM, backbone: PS-PO (listed strand fully phosphorothioate, complement phosphodiester)
[12] = duplex concentration 5 µM, backbone: PS-PS (both strands fully phosphorothioate)
[13] = duplex concentration 7.5 µM, backbone: PO-PO (both strands phosphodiester DNA)
[14] = duplex concentration 7.5 µM, backbone: PS-PO (listed strand fully phosphorothioate, complement phosphodiester)
[15] = duplex concentration 7.5 µM, backbone: PS-PS (both strands fully phosphorothioate)
[16] = duplex concentration 10 µM, backbone: PO-PO (both strands phosphodiester DNA)
[17] = duplex concentration 10 µM, backbone: PS-PO (listed strand fully phosphorothioate, complement phosphodiester)
[18] = duplex concentration 10 µM, backbone: PS-PS (both strands fully phosphorothioate)
[19] = duplex concentration 15 µM, backbone: PO-PO (both strands phosphodiester DNA)
[20] = duplex concentration 15 µM, backbone: PS-PO (listed strand fully phosphorothioate, complement phosphodiester)
[21] = duplex concentration 20 µM, backbone: PS-PO (listed strand fully phosphorothioate, complement phosphodiester)
[22] = backbone: PO-PO (both strands phosphodiester DNA)
[23] = backbone: PS-PO (listed strand fully phosphorothioate, complement phosphodiester)
[24] = backbone: PS-PS (both strands fully phosphorothioate)
[25] = duplex concentration 1 µM, backbone: PS-PO (listed strand fully phosphorothioate, complement phosphodiester)
[26] = duplex concentration 15 µM, backbone: PS-PS (both strands fully phosphorothioate)
[27] = duplex concentration 20 µM, backbone: PO-PO (both strands phosphodiester DNA)
[28] = duplex concentration 20 µM, backbone: PS-PS (both strands fully phosphorothioate)

Sequence	duplex melting temperature [1, 5]	duplex melting temperature [1, 6]	duplex melting temperature [1, 7]	duplex melting temperature [1, 8]	duplex melting temperature [1, 9]	duplex melting temperature [1, 10]	duplex melting temperature [1, 11]	duplex melting temperature [1, 12]	duplex melting temperature [1, 13]	duplex melting temperature [1, 14]	duplex melting temperature [1, 15]	duplex melting temperature [1, 16]	duplex melting temperature [1, 17]	duplex melting temperature [1, 18]	duplex melting temperature [1, 19]	duplex melting temperature [1, 20]	duplex melting temperature [1, 21]	duplex formation free energy ΔG50 [2, 22]	duplex formation free energy ΔG50 [2, 23]	duplex formation free energy ΔG50 [2, 24]	duplex formation enthalpy ΔH [3, 22]	duplex formation enthalpy ΔH [3, 23]	duplex formation enthalpy ΔH [3, 24]	duplex formation entropy ΔS [4, 22]	duplex formation entropy ΔS [4, 23]	duplex formation entropy ΔS [4, 24]	duplex melting temperature [1, 25]	duplex melting temperature [1, 26]	duplex melting temperature [1, 27]	duplex melting temperature [1, 28]
CGCGCGAGTATTTATAACCT	71.21 ± 0.27 °C	52.47 ± 0.24 °C	72.26 ± 0.47 °C	64.1 ± 0.75 °C	55.09 ± 0.4 °C	73.44 ± 0.43 °C	65.57 ± 0.61 °C	56.95 ± 0.38 °C	74.53 ± 0.18 °C	66.38 ± 0.52 °C	57.68 ± 0.13 °C	75.09 ± 0.087 °C	67.07 ± 0.32 °C	58.33 ± 0.069 °C	75.71 ± 0.17 °C	67.9 ± 0.21 °C	68.39 ± 0.14 °C	-18.2 ± 0.69 kcal/mol	-13.7 ± 0.2 kcal/mol	-10.5 ± 0.12 kcal/mol	-138 ± 10 kcal/mol	-107 ± 4 kcal/mol	-86 ± 6.3 kcal/mol	-372 ± 29 cal/mol/K	-290 ± 12 cal/mol/K	-234 ± 19 cal/mol/K				
GATCTCTCTATCATCGTTTATTGGGTAT	73.08 ± 0.33 °C	55.1 ± 0.83 °C	73.89 ± 0.35 °C	64.3 ± 0.58 °C	57.06 ± 0.4 °C	74.81 ± 0.38 °C	65.57 ± 0.42 °C	58.33 ± 0.34 °C	75.52 ± 0.2 °C	66.23 ± 0.5 °C	59.33 ± 0.081 °C	76.276 ± 0.075 °C	66.83 ± 0.22 °C	59.89 ± 0.23 °C	77.239 ± 0.047 °C	67.61 ± 0.095 °C	68.11 ± 0.096 °C	-18.9 ± 0.91 kcal/mol	-14.3 ± 0.18 kcal/mol	-11.5 ± 0.081 kcal/mol	-141 ± 12 kcal/mol	-122 ± 3.9 kcal/mol	-109 ± 3 kcal/mol	-377 ± 36 cal/mol/K	-335 ± 11 cal/mol/K	-301 ± 9 cal/mol/K	62.69 ± 0.48 °C	60.59 ± 0.19 °C	77.914 ± 0.069 °C	61.27 ± 0.12 °C
GCCCGAGCATGACTGCG		59.02 ± 0.17 °C	75.41 ± 0.19 °C	68.14 ± 0.36 °C	61.59 ± 0.3 °C	76.97 ± 0.085 °C	70 ± 0.11 °C	63.37 ± 0.21 °C	77.92 ± 0.1 °C	71.104 ± 0.068 °C	64.41 ± 0.16 °C	78.54 ± 0.1 °C	71.926 ± 0.031 °C	65.09 ± 0.084 °C	79.72 ± 0.12 °C	73.02 ± 0.13 °C	73.82 ± 0.14 °C	-16.3 ± 0.36 kcal/mol	-13.6 ± 0.11 kcal/mol	-12.16 ± 0.1 kcal/mol	-98.8 ± 4.5 kcal/mol	-83.7 ± 1.9 kcal/mol	-86.9 ± 2.4 kcal/mol	-255 ± 13 cal/mol/K	-217 ± 5.5 cal/mol/K	-231 ± 7.1 cal/mol/K	65.4 ± 0.24 °C	66.12 ± 0.12 °C	80.63 ± 0.26 °C	66.8 ± 0.27 °C
CAAGCCTCGATTTTGT		46.56 ± 0.31 °C	64.39 ± 0.47 °C	56.69 ± 0.17 °C	50.11 ± 0.18 °C	66.83 ± 0.17 °C	58.85 ± 0.28 °C	52.41 ± 0.077 °C	68.04 ± 0.08 °C	60.19 ± 0.34 °C	53.632 ± 0.045 °C	68.83 ± 0.17 °C	60.95 ± 0.27 °C	54.55 ± 0.083 °C	70.12 ± 0.2 °C	62.25 ± 0.24 °C	63.14 ± 0.43 °C	-12.29 ± 0.11 kcal/mol	-10.63 ± 0.052 kcal/mol	-9.148 ± 0.028 kcal/mol	-72.5 ± 2.1 kcal/mol	-71.3 ± 1.6 kcal/mol	-63.1 ± 2.1 kcal/mol	-186 ± 6 cal/mol/K	-188 ± 4.9 cal/mol/K	-167 ± 6.5 cal/mol/K		55.802 ± 0.033 °C	71.17 ± 0.15 °C	56.6 ± 0.35 °C
CCGCTCAGAGTAGAGA	62.75 ± 0.41 °C	49.2 ± 0.5 °C	65.47 ± 0.19 °C	59.67 ± 0.14 °C	52.58 ± 0.28 °C	67.54 ± 0.15 °C	61.84 ± 0.13 °C	54.81 ± 0.14 °C	68.92 ± 0.084 °C	63.04 ± 0.11 °C	55.91 ± 0.17 °C	69.87 ± 0.13 °C	63.88 ± 0.14 °C	56.68 ± 0.077 °C	71.25 ± 0.081 °C	65.05 ± 0.1 °C	65.94 ± 0.14 °C	-12.5 ± 0.059 kcal/mol	-11.31 ± 0.042 kcal/mol	-9.673 ± 0.048 kcal/mol	-72.8 ± 1.1 kcal/mol	-73.5 ± 1.1 kcal/mol	-68.9 ± 2.6 kcal/mol	-187 ± 3.2 cal/mol/K	-193 ± 3.2 cal/mol/K	-183 ± 8 cal/mol/K	56.777 ± 0.05 °C	57.72 ± 0.067 °C	72.15 ± 0.098 °C	58.67 ± 0.3 °C
TGCCATGTTGAAAACC	61.32 ± 0.21 °C	44.3 ± 0.54 °C	63.56 ± 0.48 °C	56.23 ± 0.2 °C	46.98 ± 0.17 °C	65.51 ± 0.22 °C	58.37 ± 0.066 °C	48.71 ± 0.25 °C	66.6 ± 0.21 °C	59.53 ± 0.1 °C	49.82 ± 0.18 °C	67.59 ± 0.15 °C	60.34 ± 0.13 °C	50.73 ± 0.22 °C	68.82 ± 0.18 °C	61.44 ± 0.11 °C	62.27 ± 0.073 °C	-12.4 ± 0.13 kcal/mol	-10.63 ± 0.058 kcal/mol	-8.447 ± 0.02 kcal/mol	-79.2 ± 2.6 kcal/mol	-76.1 ± 1.9 kcal/mol	-74 ± 2.4 kcal/mol	-207 ± 7.6 cal/mol/K	-203 ± 5.8 cal/mol/K	-203 ± 7.4 cal/mol/K		51.73 ± 0.34 °C	69.71 ± 0.33 °C	52.86 ± 0.13 °C
ACATGACTCATCTTAGCCGGCGAG	77.5 ± 1.1 °C	63.8 ± 0.81 °C	79.47 ± 0.48 °C	72.33 ± 0.54 °C	65.78 ± 0.62 °C	80.58 ± 0.42 °C	73.6 ± 0.59 °C	67.03 ± 0.46 °C	81.54 ± 0.25 °C	74.24 ± 0.52 °C	68.06 ± 0.18 °C	82.18 ± 0.17 °C	75.03 ± 0.16 °C	68.59 ± 0.11 °C	82.95 ± 0.13 °C	75.79 ± 0.14 °C	76.42 ± 0.052 °C	-19.9 ± 0.5 kcal/mol	-17.8 ± 0.41 kcal/mol	-14.53 ± 0.14 kcal/mol	-128 ± 5.6 kcal/mol	-133 ± 5.9 kcal/mol	-115 ± 2.6 kcal/mol	-336 ± 16 cal/mol/K	-356 ± 17 cal/mol/K	-311 ± 7.6 cal/mol/K	71.03 ± 0.65 °C	69.29 ± 0.1 °C	83.69 ± 0.2 °C	69.97 ± 0.13 °C
GCGGTTGGTGGCCAAC		56.4 ± 0.12 °C	72.845 ± 0.0061 °C	65.54 ± 0.56 °C	59.65 ± 0.13 °C	74.66 ± 0.1 °C	67.67 ± 0.49 °C	61.64 ± 0.16 °C	75.96 ± 0.21 °C	68.96 ± 0.29 °C	62.663 ± 0.048 °C	76.8 ± 0.26 °C	69.81 ± 0.25 °C	63.516 ± 0.06 °C	77.93 ± 0.21 °C	71.07 ± 0.17 °C	71.91 ± 0.09 °C	-14.9 ± 0.28 kcal/mol	-12.9 ± 0.13 kcal/mol	-11.29 ± 0.089 kcal/mol	-87 ± 3.6 kcal/mol	-80.6 ± 2.4 kcal/mol	-75.1 ± 2.4 kcal/mol	-223 ± 10 cal/mol/K	-209 ± 7.1 cal/mol/K	-197 ± 7.2 cal/mol/K	63.49 ± 0.42 °C	64.64 ± 0.11 °C	78.54 ± 0.17 °C	65.39 ± 0.087 °C
TTCTACATCCATCTTAATCCCA		49.9 ± 0.91 °C	69.29 ± 0.65 °C	60.3 ± 0.71 °C	52.2 ± 0.78 °C	70.58 ± 0.52 °C	61.7 ± 1 °C	54.2 ± 0.62 °C	71.5 ± 0.27 °C	63 ± 0.72 °C	55.53 ± 0.29 °C	72.3 ± 0.098 °C	63.81 ± 0.27 °C	56.28 ± 0.17 °C	73.48 ± 0.21 °C	64.85 ± 0.098 °C	65.55 ± 0.094 °C	-14.7 ± 0.46 kcal/mol	-12 ± 0.2 kcal/mol	-9.752 ± 0.037 kcal/mol	-99.4 ± 7.2 kcal/mol	-90.6 ± 5.1 kcal/mol	-78.1 ± 2.2 kcal/mol	-262 ± 21 cal/mol/K	-243 ± 15 cal/mol/K	-212 ± 6.8 cal/mol/K	59.7 °C	57.3 ± 0.083 °C	74.36 ± 0.2 °C	57.98 ± 0.21 °C
